Data from US20140086829A1 (BIOREC S A, published 2014).

What was measured:
[1] = molecular target: T1, isoform 121 of human VEGF-A (Peprotech) (human, UniProt P15692-9 27-147); assay: ELISA; antigen coated 1 µg/ml; scFv 10 µg/mL; 9E10-peroxidase
T1 construct: also called human VEGF121; VEGF 121
T1 sequence (looked up): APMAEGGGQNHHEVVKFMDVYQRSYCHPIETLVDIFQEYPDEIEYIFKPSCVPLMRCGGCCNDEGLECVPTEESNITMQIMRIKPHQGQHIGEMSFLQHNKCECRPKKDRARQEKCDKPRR

[2] = molecular target: T2, isoform 165 of human VEGF-A (Peprotech) (human, UniProt P15692-4 27-191); assay: as above
T2 construct: also called human VEGF165; VEGF 165

mouse VEGF (Peprotech) = molecular target: T3, mouse VEGF (Peprotech) (mouse, UniProt Q00731-2 27-190, limits assumed); assay: as above
T3 construct: also called Mouse VEGF-A
T3 sequence (looked up): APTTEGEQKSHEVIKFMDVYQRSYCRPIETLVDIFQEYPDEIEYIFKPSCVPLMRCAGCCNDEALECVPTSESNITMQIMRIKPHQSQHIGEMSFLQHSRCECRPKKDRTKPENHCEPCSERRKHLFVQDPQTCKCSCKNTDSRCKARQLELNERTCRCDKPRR

human GST-VEGF [3] = molecular target: T4, human GST-VEGF (human, UniProt P15692-9 27-147); assay: competition ELISA on coated GST-VEGF; soluble scFv 2H1 titrated; competitor phage scFv L1
T4 construct: also called GST-VEGF humano; not shown: GST fusion partner
T4 sequence (looked up): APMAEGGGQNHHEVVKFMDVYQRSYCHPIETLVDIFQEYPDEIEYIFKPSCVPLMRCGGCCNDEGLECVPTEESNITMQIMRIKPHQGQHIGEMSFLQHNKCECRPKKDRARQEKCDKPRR

human GST-VEGF [4] = molecular target: T4, human GST-VEGF; assay: competition ELISA on coated GST-VEGF; soluble scFv 2H1 titrated; competitor phage scFv L3
human GST-VEGF [5] = molecular target: T4, human GST-VEGF; assay: competition ELISA on coated GST-VEGF; soluble scFv 2H1 titrated; competitor phage scFv 3C4
human GST-VEGF [6] = molecular target: T4, human GST-VEGF; assay: competition ELISA on coated GST-VEGF; soluble scFv 2H1 titrated; competitor phage scFv 3E1
human GST-VEGF [7] = molecular target: T4, human GST-VEGF; assay: competition ELISA on coated GST-VEGF; soluble scFv 2H1 titrated; competitor phage scFv 3E3
human GST-VEGF [8] = molecular target: T4, human GST-VEGF; assay: competition ELISA on coated GST-VEGF; soluble scFv 2H1 titrated; competitor phage scFv 3E5
human GST-VEGF [9] = molecular target: T4, human GST-VEGF; assay: competition ELISA on coated GST-VEGF; soluble scFv 2H1 titrated; competitor phage scFv 3E9
human GST-VEGF [10] = molecular target: T4, human GST-VEGF; assay: competition ELISA on coated GST-VEGF; soluble scFv 2H1 titrated; competitor phage scFv 3F3
human GST-VEGF [11] = molecular target: T4, human GST-VEGF; assay: competition ELISA on coated GST-VEGF; soluble scFv 2H1 titrated; competitor phage scFv 4H3
human GST-VEGF [12] = molecular target: T4, human GST-VEGF; assay: competition ELISA on coated GST-VEGF; soluble scFv 2H1 titrated; competitor phage scFv 1G4
human GST-VEGF [13] = molecular target: T4, human GST-VEGF; assay: competition ELISA on coated GST-VEGF; soluble scFv 2H1 titrated; competitor phage scFv 1H2
human GST-VEGF [14] = molecular target: T4, human GST-VEGF; assay: competition ELISA on coated GST-VEGF; soluble scFv 2H1 titrated; competitor phage scFv 2F5
human GST-VEGF [15] = molecular target: T4, human GST-VEGF; assay: competition ELISA on coated GST-VEGF; soluble scFv 2H1 titrated; competitor phage scFv 1B1
human GST-VEGF [16] = molecular target: T4, human GST-VEGF; assay: competition ELISA on coated GST-VEGF; soluble scFv 2H1 titrated; competitor phage scFv 1H3
human GST-VEGF [17] = molecular target: T4, human GST-VEGF; assay: competition ELISA on coated GST-VEGF; soluble scFv 2H1 titrated; competitor phage scFv 3F3; remark: listed apart in the source
human GST-VEGF [18] = molecular target: T4, human GST-VEGF; assay: competition ELISA on coated GST-VEGF; soluble scFv 2H1 titrated; competitor phage scFv 4D8
human GST-VEGF [19] = molecular target: T4, human GST-VEGF; assay: competition ELISA on coated GST-VEGF; soluble scFv 2H1 titrated; competitor phage scFv 2B12
human GST-VEGF [20] = molecular target: T4, human GST-VEGF; assay: competition ELISA on coated GST-VEGF; soluble scFv 2H1 titrated; competitor phage scFv 3B10
human GST-VEGF [21] = molecular target: T4, human GST-VEGF; assay: competition ELISA on coated GST-VEGF; soluble scFv 2H1 titrated; competitor phage scFv 2D1O
human GST-VEGF [22] = molecular target: T4, human GST-VEGF; assay: competition ELISA on coated GST-VEGF; soluble scFv 2H1 titrated; competitor phage scFv 2H10
human GST-VEGF [23] = molecular target: T4, human GST-VEGF; assay: competition ELISA on coated GST-VEGF; soluble scFv 2H1 titrated; competitor phage scFv L3H6
human GST-VEGF [24] = molecular target: T4, human GST-VEGF; assay: competition ELISA on coated GST-VEGF; soluble scFv 2H1 titrated; competitor phage scFv L3H7

T2 sequence (P15692 other isoform, or with tags, fused parts or gaps limits assumed): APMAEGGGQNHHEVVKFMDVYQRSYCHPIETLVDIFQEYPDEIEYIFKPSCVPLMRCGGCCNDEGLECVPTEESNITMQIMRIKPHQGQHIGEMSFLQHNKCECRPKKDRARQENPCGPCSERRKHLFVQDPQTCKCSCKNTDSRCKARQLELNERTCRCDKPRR

B1: soluble scFv 2H1 antibody fragment (scFv, from another filing)
scFv: QQVQLVQSGAEVKKPGESLKISCKGSGYSFTSYWIGWVRQMPGKGLEWMGIIYPGDSDTRYSPSFQGQVTISADKSISTAYLQWSSLKASDTAMYYCARLVVRDTEIWGQGTMVTVSSAPQAKSSGSGSESKVDQAVVTQEPSLTVSPGGTVTLTCASSIGAVTSGNYPNWFQQRPGQPPRALIYSTSNKHSWTPARFSGSLLGGKAALTLSGAQPEDEAEYYCLLSYSGARPVFGGGTKLTVLGAAAGSEQKLISEEDLNSHHHHHH
absorbance at 492 nm [1]: 0.691 | absorbance at 492 nm [2]: 0.665 | absorbance at 492 nm (mouse VEGF (Peprotech)): 0.09 | IC50 (human GST-VEGF [3]): 11.7 µg/mL | IC50 (human GST-VEGF [4]): 350 µg/mL | IC50 (human GST-VEGF [5]): 29 µg/mL | IC50 (human GST-VEGF [6]): 21.2 µg/mL | IC50 (human GST-VEGF [7]): 35.1 µg/mL | IC50 (human GST-VEGF [8]): 9.06 µg/mL | IC50 (human GST-VEGF [9]): 15 µg/mL | IC50 (human GST-VEGF [10]): 48.9 µg/mL | IC50 (human GST-VEGF [11]): 12.2 µg/mL | IC50 (human GST-VEGF [12]): 57.7 µg/mL | IC50 (human GST-VEGF [13]): 124 µg/mL | IC50 (human GST-VEGF [14]): 4.21 µg/mL | IC50 (human GST-VEGF [15]): 149 µg/mL | IC50 (human GST-VEGF [16]): 110 µg/mL | IC50 (human GST-VEGF [17]): 49.7 µg/mL | IC50 (human GST-VEGF [18]): 33 µg/mL | IC50 (human GST-VEGF [19]): 21.1 µg/mL | IC50 (human GST-VEGF [20]): 7.94 µg/mL | IC50 (human GST-VEGF [21]): 65.7 µg/mL | IC50 (human GST-VEGF [22]): 10.2 µg/mL | IC50 (human GST-VEGF [23]): 978 µg/mL | IC50 (human GST-VEGF [24]): 890 µg/mL
